This note sets out measurements from US20110135645A1.

By Kd is commonly meant the concentration at which binding is half-saturated. Low values mean a tighter complex, high ones a looser complex. For orientation: koff means the first-order rate constant of dissociation. A high value points to a short-lived complex.

Assay [1] concerns the target F protein of HMPV genogroup A1 strain (virus in plaque reduction assay) (human metapneumovirus) (UniProt Q6WB98). As to the kind of experiment: cell-based or functional assay.
Assay [2] deals with F protein of HMPV genogroup B1 strain (virus in plaque reduction assay) (human metapneumovirus) (UniProt Q6WB98). As to the kind of experiment: cell-based or functional assay.
Assay [3] addresses F protein of HMPV genogroup A2 strain (virus in plaque reduction assay) (human metapneumovirus) (UniProt Q6WB98). As to the kind of experiment: cell-based or functional assay.
Assay [4] concerns the target F protein of HMPV genogroup B2 strain (virus in plaque reduction assay) (human metapneumovirus) (UniProt Q6WB98). As to the kind of experiment: cell-based or functional assay.
For assay [5], the target named is HMPV F ectodomain lacking the transmembrane domain (FΔTM), 6xHis-tagged, strain TN/92-4 (genogroup A2) (human metapneumovirus). As to the kind of experiment: SPR (BIAcore 2000), HMPV FΔTM immobilized, 1:1 Langmuir fit. For orientation: Surface plasmon resonance follows binding to a sensor surface in real time, without labels.

A value given as a limit tells only on which side of the number the result lay.

In assay [1], Fab DSλ7 registered a Neut. Conc. (60% plaque reduction), A1 of 9.8 µg/mL and a Neut. Dilution (60% plaque reduction), A1 (dilution (1:x)) of 120. In addition, in assay [2], the Neut. Conc. (60% plaque reduction), B1 turned out to be 2.4 µg/mL and the Neut. Dilution (60% plaque reduction), B1 (dilution (1:x)) stood at 488. In addition, in assay [3], the Neut. Conc. (60% plaque reduction) is 1.1 µg/mL; the Neut. Conc. (60% plaque reduction), A2 is 1.1 µg/mL; the Neut. Dilution (60% plaque reduction) (dilution (1:x)) is 1110; the Neut. Dilution (60% plaque reduction), A2 (dilution (1:x)) is 1040. Besides, the Neut. Dilution (60% plaque reduction), B2 (dilution (1:x)) in assay [4] is less than 20. For the same substance, in assay [5], the equilibrium dissociation constant (Kd) came out at 0.984 nM and the koff was 3.48e-05 s⁻¹.
